Experimental data: the supplement of paper PMC12455559
± gives the standard deviation of the averaged measurements.

What was measured:
[1] = purified protein yield per well (BCA); higher = higher soluble expression
In short: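 Candidate enzymes were produced in E. coli C41(DE3) grown in 2 mL autoinduction cultures containing 100 µg/mL kanamycin, first at 37 °C for 2 h and then at 18 °C for 40 h. After cell lysis, protein was captured on Ni-charged magnetic beads and freed by SUMO protease cleavage on an OT-2 robot. Purified protein yield per well was read with the Pierce Rapid Gold BCA kit. Values under 25 ug (0.1 mg/mL) fall below the detection threshold.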

[2] = melting temperature (DSF); higher = more thermostable
In short: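 Enzymes made in E. coli C41(DE3) were nickel-bead purified and cut free with SUMO protease before testing. Differential scanning fluorimetry gave each melting temperature. For this, 5 μL 5X Sypro Orange was added to 45 μL enzyme (0 to 0.3 mg/mL) in sealed PCR plates, and a Bio-Rad CFX96 read fluorescence from 25 °C over 250 cycles of 0.3 °C each, ramping at 0.3 °C/s.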

[3] = PET hydrolysis, aromatic products released after 48 h (umol product/mg enzyme); higher = more PET depolymerization activity
In short: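 Tagless, SUMO-cleaved candidate enzymes were purified on nickel beads, and 5 μg (50 μL) was added to 3.5 mg amorphous PET film or crystalline PET powder in 450 μL buffer. Buffers were 50 mM NaCitrate (pH 4.5, 5.5), 50 mM NaPhosphate (pH 6.5, 7.5) or glycine (pH 8.5). Sealed plates were incubated 48 h at 40 or 60 °C without shaking. PET hydrolysis activity is the aromatic product in the supernatant, read by absorbance at 260 and 280 nm against buffer blanks and expressed per mg enzyme.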

[4] = substrate: cryPow, 40 °C, pH 5.5
[5] = substrate: cryPow, 40 °C, pH 6.5
[6] = substrate: cryPow, 40 °C, pH 7.5
[7] = substrate: cryPow, 40 °C, pH 8.5
[8] = substrate: cryPow, 40 °C, pH 4.5
[9] = substrate: aFilm, 40 °C, pH 4.5
[10] = substrate: aFilm, 40 °C, pH 5.5
[11] = substrate: aFilm, 40 °C, pH 6.5
[12] = substrate: aFilm, 40 °C, pH 7.5
[13] = substrate: aFilm, 60 °C, pH 4.5
[14] = substrate: aFilm, 60 °C, pH 5.5
[15] = substrate: aFilm, 60 °C, pH 6.5
[16] = substrate: aFilm, 60 °C, pH 7.5
[17] = substrate: cryPow, 60 °C, pH 4.5
[18] = substrate: cryPow, 60 °C, pH 5.5
[19] = substrate: cryPow, 60 °C, pH 6.5
[20] = substrate: cryPow, 60 °C, pH 7.5
[21] = substrate: cryPow, 60 °C, pH 8.5

| Sequence | purified protein yield per well [1] | melting temperature [2] | PET hydrolysis [3, 4] | PET hydrolysis [3, 5] | PET hydrolysis [3, 6] | PET hydrolysis [3, 7] | PET hydrolysis [3, 8] | PET hydrolysis [3, 9] | PET hydrolysis [3, 10] | PET hydrolysis [3, 11] | PET hydrolysis [3, 12] | PET hydrolysis [3, 13] | PET hydrolysis [3, 14] | PET hydrolysis [3, 15] | PET hydrolysis [3, 16] | PET hydrolysis [3, 17] | PET hydrolysis [3, 18] | PET hydrolysis [3, 19] | PET hydrolysis [3, 20] | PET hydrolysis [3, 21] | PET hydrolysis ([3]; substrate: aFilm, 40 °C, pH 8.5) | PET hydrolysis ([3]; substrate: aFilm, 60 °C, pH 8.5) |
| --- | --- | --- | --- | --- | --- | --- | --- | --- | --- | --- | --- | --- | --- | --- | --- | --- | --- | --- | --- | --- | --- | --- |
| AQTSQVVTANPHQRGPDPTPETVRAPQGTFAFSTYSVPASVTGFGQGTIYYPDDTTQGTFAGVAISPGYTGPEASVAWLGPRLASRGFVVITITTNSRYDQPTSRGKQLLAALDYLTKQSPTEVRQRLDATRLGVMGHSMGGGGALYAAYKRPSLKAAVPLAPWNLIKNWSGIRVPTLVVAGTADKTASAGAHSLPFYSSMTGARERAFADVTGADHLTFVREDPVIGALAVSWLKRFLDDDTRYAPFITEPVGLSRFLCSCPYAG [DP007] | 46 µg | 51.7 C | < 3 | 8 | 16 | 16 | – | – | – | – | – | – | – | – | – | – | – | – | – | – | – | – |
| ASPYERGPDPTDSILEASRGPFATSQLSVSSLSVSGFGGGTVYYPTDTSQGTFGAIAISPGYTARWSSLAWLGPRIASHGFVVIGIETNTIYDQPASRGRQLLAALDYLTSSSPSTVRSRIDASRLAVAGHSMGGGGTLEAANDRPSLQAAVPLAPWNLTKIWSGVRVPTMIIGGEADTVAPVASHSEPFYQSIPSSVEKAYLELNNASHFFPQTTNTTMAKSMVAWLKRFVDDDTRYDQFLCPAPRGLAIQEYRDTCPIS [TEP144] | 32.6 µg | 46.6 C | < 3 | < 3 | < 3 | – | < 3 | – | – | – | – | – | – | – | – | – | – | – | – | – | – | – |
| ASPYERGPNPTAASVSATTGPFAIASVSVARGNGFGGGVIYYPTATNQGTFGGIAISPGLNGTWAGIAWLGPRLASQGFVVFGIETNNLNDSPTSRGTQLLAALDYLTQRSTVRTRVDAGRLAVMGHSMGGGGALDAALRRPSLQAAIGNAPHLPSGTLSNDRVPTMIYAMQNDTLVPPSRLTTLYNSIPATTERGYILVTGAGHNYIGQPSTTLARTMIPWFKIFIDDDTRYSQFLCPMSNQSGISQYRNSCPLS [ESM160] | 400 µg | 55.6 C | 13.5 ± 2.1 | 43.5 ± 3.5 | 66.5 ± 0.71 | – | < 3 | < 3 | < 3 | < 3 | < 3 | < 3 | < 3 | < 3 | < 3 | < 3 | < 3 | 7.5 ± 0.71 | 14 ± 1.4 | – | – | – |
| ASPYERGPNPTTAILEASSGPYSVSSVSVSSLVTGFGGGRIYYPTTTADGTFGGIAISPGFTARWSSLEWLGPRIASHGFVVIGIETNSIYDQPTSRGQQLLAALDYLVNSSSARTRVDRNRLAVAGHSMGGGGTLYAANARPSLQAAVPIAPWNTDKTWGGVQVPTMIIGGESDSVAPVATHAIPFYTSIPASSEKAYLELNNASHFFPQTVNTTMAKSMVSWLKRYVDDDTRYDPWLCPAPSGLSISDYRDTCPA [DP084] | 91 µg | 48.7 C | < 3 | 3 | 9 | 11 | – | – | – | – | – | – | – | – | – | – | < 3 | < 3 | < 3 | < 3 | – | – |
| ASPYQRGPNPTAASIAATTGPFAIASITVPRGNGFGGGVIYYPTSTSQGTFGGIAISPGLNGTWSGISWLGPRLASQGFVVFGIETNNLNDSPTSRGTQLLAALDYLTQRSSVRSRLDANRLAVMGHSMGGGGALDAALRRPTLKATIGNAPHLPSGSLANDRVPTLIYAMQNDTLVTPARLTSLYNTIPAATERAYIEVTGAGHNYIGQPSTTLARTMIPWLKIFIDSDTRYAPFLCPLNDRSGIRQYRNSCPLI [ESM128] | 407 µg | 66.4 C | 43 | 75 ± 1.4 | 110 ± 4.2 | – | < 3 | < 3 | < 3 | < 3 | 6 | < 3 | < 3 | < 3 | < 3 | < 3 | 4.5 ± 0.71 | 18.5 ± 3.5 | 41.5 ± 6.4 | – | – | – |
| ASYQRGPDPTVQSVAANRGTFATAELTVPRGFGFNGGKIYYPTDTSQGTWGAIAAVPGYTASWAAEGAWMGPWLASFGFVVIGIDTNSPTDYDTARGTQLLAALDYLTGQSAVRDRVDPNRLAVLGHSMGGGGAISAAMRRPSLKAAVPLAPASFSQNLSNVRVPTLIMGARDDGTITPSSIDGLWSSKPATTQGARVELASGGHGFPTWGNSQVTRREIPWLKIFLDNDNRYAQFLCPSLADSTGVSRYISQCPYGSTGQPSSPPVSSPPAAGGPVRAVGAGKCLDVPNASQTNDTQLAIWDCNGGSNQQWTYTSGKQLRVYGGKCLDASGHGMSNGTRVIIWDCGGGANQQWNVNANGTITGVESGLCLDVTGAATANGALVDLWACNNGGNQQWRLG [ESM097] | 81.7 µg | 58.3 C | < 3 | < 3 | 4 | – | < 3 | – | – | – | – | – | – | – | – | – | – | – | – | – | – | – |
| ASYQRGPDPTVQSVAANRGTFPTAEITVPRGYGFNGGKIYYPTDTSQGTWGAIAAVPGYTASWAAEGAWMGPWLASFGFVVIGIDTNSPTDFDTARGTQLLAALDYLTGQSAVRDRVDPNRLAVLGHSMGGGGAISAAMRRPTLKAAIPLAPASFSQNLSTVRVPTLIMGARDDGTVTPSSINSLWATKPATTKGAYVELTGGGHGFPTWGNSQVTRREIPWLKIFLDNDNRYTQFLCPSLADNTGVSRYLSECPYGSTGQPTSPPSTPPPTSGGPVRAVGAGKCLDVPNASQTNDTQLAIWDCNGGTNQRWTRTAGKQLTVYGNKCLDAAGQGTTNGTRVIIWDCTGTANQQWNVNANGTITGVQSGLCLDVSGGSTANGALTQLWACNNGSNQQWRLG [ESM070] | 254 µg | 64.6 C | 4 | 10 | 17 | – | < 3 | – | – | – | – | – | – | – | – | < 3 | < 3 | < 3 | < 3 | – | – | – |
| ATGPSSPCSNCTRGPDPTVASLKSATGPYTTAKFSVSGYLKGFGDSTVYYPTNASGKMGAIAVIPGYVSYEDSIKWWGPRLASHGFVVMTMNTSTIYDQPDSRATQLSKALDYMIAQSGSSSSPIYNKVDSTRLGVIGWSMGGGGTLKLSTQRSINAIIPQAPYYAGSNSFNTIKTPALILACGADAVAPVGVHASPFYNRIPGTTPKAYLEIYGGSHFCANSGYPNEDLLGMYGIAWMKRFIDFDSRYSKFLCGPNHTADLNISEYRQNCNY [DP078] | 29 µg | 59.5 C | 9 | 47 | 60 | 66 | – | – | – | – | – | – | – | – | – | – | – | – | – | – | – | – |
| ATGPSSPCTNCTRGPNPTVAALKSNSGPFSTAKFSVSGYLKGFGDSTVYYPTNTTGKMGAIAVIPGYLSYESSIEWWGPRLASHGFVVITMNTNTIYDQPDSRATQLSKALDYVIAQSNSSSSPIAGKVDSTRLGAIGWSMGGGGSLKLSTQRSLNAIIPQAPYYAGSNSFNTIKTPTLILACGVDAVAPVAAHASPFYNKIPNTTPKAFLEIYGGSHFCANSGYPNQDLLGMYGISWMKRFIDFDKRYSQFLCGPNHQADLAISEYRQNCNY [ESM048] | 48 µg | 49.6 C | < 3 | < 3 | < 3 | – | < 3 | – | – | – | – | – | – | – | – | – | – | – | – | – | – | – |
| ATNPYERGPAPTGTSVAADRGPFATAQLTVAKGNGFGGGVVYYPTDTSQGTFGAIAIAPGYGTEWRWYAWLGPRLASFGFVVLGIETNSLDDYADARGAQLLSALDWLVDSSPVRDRVDRTRLAVGGHSMGGGGALTAAIQRPSLMTAIGMAPYVPDGILRTIKIPTVLFGGQTDTTVTPSYLASAYATIPATVQRAYPEIANEGHGFAAGGGGGNSGAFARTMMIWMKVFIDKDTRYTGFLCPTLSNMSGISKYQASCPLGPTSGPSQSPSSSPSSTPSSSPSSTPSVSPSSTPSASPPGGPCRATYRTVNSWSGGYQGEVTVTAGGSAVNGWTVKWALSGGQSVTQVWNGTLSASGSNVSVSNASYNGSLGAGASTTFGFLANGTPSTPSPTCTSP [ESM021] | 275 µg | 68.8 C | 4.5 ± 0.71 | 9 | 9 ± 1.4 | – | < 3 | < 3 | < 3 | < 3 | < 3 | < 3 | < 3 | < 3 | < 3 | < 3 | < 3 | < 3 | < 3 | – | – | – |
| ATNPYQRGPAPTAESISAERGSFAVADSAVSADSVSGFGGGTVYYPTDTSAGKFGAVAIAPGFTANEWSLAWLGPRLASHGFVVFIIDTITTGDQPAQRGDELRAALSYLTTSSPVRDRVDPARLGVMGHSMGGGGALQAAEDDPSIRAVIPMTPYDLDSPSPKVTAPTLIIGAQDDTIAPVAYHARPFYESLTSARAKEYIELRNQSHFAPNYPNATIASASIAWLKRYIDDDQRYQPFACPAQVGSWLISDFRSAC [DP034] | 180 µg | 47.5 C | < 3 | < 3 | < 3 | < 3 | – | – | < 3 | < 3 | < 3 | – | < 3 | < 3 | < 3 | – | < 3 | < 3 | < 3 | < 3 | < 3 | < 3 |
| ATPDHAATADHASAHHHAAYPVSQQTIPATDGTGFGAATLYAPQGTGRKTLGAIVVAPGLKGDQSDLAWLAQDLAGEGFIVLNMDTLGKYDLPNQRSYEMLAAAKYLATASSVKDQVDPADIGVVGYSLGGGGALQAAVEQHGLKAAVALMPYDFPAGTTDPYKPTESPTYPGITTPTLVITGQADTTAPAASMGKPAYDSIPASTPKQYLELRGADHLAARATTNGTVRDAVTNFLKVYLDGNSAYRKYVCPAPPTSAAISESASSCPR [ESM174] | 86.9 µg | 44.5 C | < 3 | < 3 | < 3 | – | < 3 | – | – | – | – | – | – | – | – | < 3 | < 3 | < 3 | < 3 | – | – | – |
